Where “and” joins values, the source holds several entries; their conditions need not be identical. Equal entries are not always repeated.

Assay [1] concerns the target mouse PROM1 SV8 lacking exon 19a, Flag-tagged (mouse). The assay is described as follows: native gel or EMSA. (In general: Mobility shift assays separate free from complexed probe on a gel.)
Assay [2] has as its target mouse PROM1, photoreceptor-specific isoform SV8 (contains exon 19a), Flag-tagged (mouse). In words: native gel or EMSA.

Usually stoichiometry N stands for a count of units in the complex or per binding partner. For the substance “mouse PROM1 SV8 lacking exon 19a, Flag-tagged (natural protein)”, the stoichiometry N in assay [1] was 2 and 4.
On to “mouse PROM1, photoreceptor-specific isoform SV8 (contains exon 19a), Flag-tagged (natural protein)”, for which the stoichiometry N in assay [2] is 2 and 4.

Source of the values: article doi:10.1101/2022.03.04.482347.
